From article PMC11922745, “Reconstitution of SPO11-dependent double-strand break formation” (Nature, 2024)

T1: SPO11 (beta isoform);TOP6BL (Mus musculus;Mus musculus, UniProt Q9WTK8;J3QMY9 1-396;1-579, |)
T1 sequence 1: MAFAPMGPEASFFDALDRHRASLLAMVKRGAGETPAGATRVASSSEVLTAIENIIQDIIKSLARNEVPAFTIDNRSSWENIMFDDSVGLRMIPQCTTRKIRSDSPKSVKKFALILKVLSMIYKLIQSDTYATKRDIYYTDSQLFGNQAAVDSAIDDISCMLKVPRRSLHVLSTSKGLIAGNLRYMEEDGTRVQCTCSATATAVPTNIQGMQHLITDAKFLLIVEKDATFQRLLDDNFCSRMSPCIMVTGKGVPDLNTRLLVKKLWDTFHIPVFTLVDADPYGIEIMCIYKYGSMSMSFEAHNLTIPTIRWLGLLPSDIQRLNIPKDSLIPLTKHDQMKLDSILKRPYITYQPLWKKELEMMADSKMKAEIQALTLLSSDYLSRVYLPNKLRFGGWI
T1 sequence 2: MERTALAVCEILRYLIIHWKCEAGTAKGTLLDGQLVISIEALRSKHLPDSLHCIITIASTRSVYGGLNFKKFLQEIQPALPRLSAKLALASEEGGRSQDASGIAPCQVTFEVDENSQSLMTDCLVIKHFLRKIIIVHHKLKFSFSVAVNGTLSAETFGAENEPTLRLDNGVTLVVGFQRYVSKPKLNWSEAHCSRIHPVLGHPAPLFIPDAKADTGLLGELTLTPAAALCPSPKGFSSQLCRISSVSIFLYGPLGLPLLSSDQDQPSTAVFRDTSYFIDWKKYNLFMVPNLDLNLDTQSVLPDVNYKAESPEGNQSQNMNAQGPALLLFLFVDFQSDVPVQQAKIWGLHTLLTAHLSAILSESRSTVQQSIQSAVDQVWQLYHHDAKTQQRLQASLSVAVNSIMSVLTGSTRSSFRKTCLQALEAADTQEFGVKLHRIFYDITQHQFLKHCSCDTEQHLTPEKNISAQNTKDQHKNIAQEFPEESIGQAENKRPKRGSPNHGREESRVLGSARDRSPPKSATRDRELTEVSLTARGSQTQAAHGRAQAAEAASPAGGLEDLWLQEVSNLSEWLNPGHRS

T2: Flag-tagged mouse SPO11 (β splicing isoform), wild type (mouse, UniProt Q9WTK8-1 1-396)
T2 construct: mouse SPO11, β splicing isoform (includes exon 2), UniProt Q9WTK8-1, full-length optimized coding DNA; A TEV cleavage site lies between the Flag tag and SPO11; no cleavage is described; also called Flag–SPO11; mSPO11; not shown: Flag, N-terminal, kept
T2 sequence (looked up): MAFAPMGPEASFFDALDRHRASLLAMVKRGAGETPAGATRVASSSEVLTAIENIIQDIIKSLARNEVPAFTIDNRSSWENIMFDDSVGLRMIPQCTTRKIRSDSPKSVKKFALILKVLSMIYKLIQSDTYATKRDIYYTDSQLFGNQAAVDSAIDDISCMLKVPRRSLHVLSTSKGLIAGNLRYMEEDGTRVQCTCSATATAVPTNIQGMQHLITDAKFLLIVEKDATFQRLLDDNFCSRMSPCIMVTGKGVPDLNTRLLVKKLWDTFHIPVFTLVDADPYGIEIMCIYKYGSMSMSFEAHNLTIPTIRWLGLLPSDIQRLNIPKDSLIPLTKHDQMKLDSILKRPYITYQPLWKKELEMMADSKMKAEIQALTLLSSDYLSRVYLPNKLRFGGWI


How the values were obtained:
[1] = molecular target: T1, SPO11 (beta isoform);TOP6BL; experiment: EMSA; 5 mM Mg2+, 50 mM NaCl, 4 C; apparent Kd for first monomer; doubly bound complexes formed; Hairpin EMSA: 25 mM Tris-HCl pH 7.5, 100 mM NaCl, 5 mM MgCl2, 7.5% glycerol, 2 mM DTT, 1 mg/ml BSA, 0.1 nM DNA, 30 min 30 C; cleavage-oligo EMSA: 25 mM HEPES-NaOH pH 7.5, 50 mM NaCl, 5 mM MgCl2, 7.5% glycerol, 1 mg/ml BSA, 2 mM DTT, 4 C; settings: protein: recombinant;recombinant; tags: N-terminal Flag-TEV;untagged; copies: 1;1; label: 32P (5' labelled, then ligated); closed dumbbell, 44 bp duplex with two A4 hairpin loops
[2] = molecular target: T1, SPO11 (beta isoform);TOP6BL; experiment: EMSA; double-end binding disfavoured at 0.8 nM, restored at higher protein; Hairpin EMSA: 25 mM Tris-HCl pH 7.5, 100 mM NaCl, 5 mM MgCl2, 7.5% glycerol, 2 mM DTT, 1 mg/ml BSA, 0.1 nM DNA, 30 min 30 C; cleavage-oligo EMSA: 25 mM HEPES-NaOH pH 7.5, 50 mM NaCl, 5 mM MgCl2, 7.5% glycerol, 1 mg/ml BSA, 2 mM DTT, 4 C; settings: protein: recombinant;recombinant; tags: N-terminal Flag-TEV;untagged; copies: 1;1; label: 5'-32P; 5' overhang 2 nt (TA) at both ends
[3] = molecular target: T2, Flag-tagged mouse SPO11 (β splicing …); experiment: SEC; proteins co-expressed in FreeStyle 293-F cells; lysate (25 mM HEPES-NaOH pH 7.5, 500 mM NaCl) on anti-Flag M2 affinity gel, eluted with Flag peptide, then Superdex 200 Increase 10/300 GL; fractions on Coomassie-stained SDS-PAGE; settings: partners not purified

Binder | binding result [2] | also measured
oligonucleotide cleavage substrate (44 bp, A4 loops at both ends) (structured_DNA, covalently closed circle (ligated)) DNA: CGGTTCAAAAGAACCGGAGCTGAATGAAGCCATACCAAACGACGAGCGTGACACAAAAGTGTCACGCTCGTCGTTTGGTATGGCTTCATTCAGCTC |  | Kd [1]: 1.8 nM
25 bp double-overhang duplex (dsDNA) DNA 1: TAGCAATGTAATCGTCTATGACGTTAG DNA 2: TACTAACGTCATAGACGATTACATTGC | binds | 
mouse TOP6BL, untagged (natural protein, UniProt J3QMY9-1 1-579, looked up, mouse TOP6BL, UniProt J3QMY9-1, untagged, optimized coding DNA) MERTALAVCEILRYLIIHWKCEAGTAKGTLLDGQLVISIEALRSKHLPDSLHCIITIASTRSVYGGLNFKKFLQEIQPALPRLSAKLALASEEGGRSQDASGIAPCQVTFEVDENSQSLMTDCLVIKHFLRKIIIVHHKLKFSFSVAVNGTLSAETFGAENEPTLRLDNGVTLVVGFQRYVSKPKLNWSEAHCSRIHPVLGHPAPLFIPDAKADTGLLGELTLTPAAALCPSPKGFSSQLCRISSVSIFLYGPLGLPLLSSDQDQPSTAVFRDTSYFIDWKKYNLFMVPNLDLNLDTQSVLPDVNYKAESPEGNQSQNMNAQGPALLLFLFVDFQSDVPVQQAKIWGLHTLLTAHLSAILSESRSTVQQSIQSAVDQVWQLYHHDAKTQQRLQASLSVAVNSIMSVLTGSTRSSFRKTCLQALEAADTQEFGVKLHRIFYDITQHQFLKHCSCDTEQHLTPEKNISAQNTKDQHKNIAQEFPEESIGQAENKRPKRGSPNHGREESRVLGSARDRSPPKSATRDRELTEVSLTARGSQTQAAHGRAQAAEAASPAGGLEDLWLQEVSNLSEWLNPGHRS |  | stoichiometry N [3]: 1
27 bp double-overhang duplex (dsDNA) DNA 1: TAGCAATGTAATCGTCTATGACGTTAGCG DNA 2: TACGCTAACGTCATAGACGATTACATTGC | binds | 
26 bp double-overhang duplex (dsDNA) DNA 1: TAGCAATGTAATCGTCTATGACGTTAGC DNA 2: TAGCTAACGTCATAGACGATTACATTGC | binds | 
